The assay has as its target T1, human complement Factor H (human, UniProt P08603 19-1231).
T1 construct: also called FH; human FH; source: bought: Complement Technologies (purified human FH)
Description: SPR. As to conditions: both partners purified.

Consider 1 molecule from paper PMC4461315, “A Mutant Library Approach to Identify Improved Meningococcal Factor H Binding Protein Vaccine Antigens” (PLoS ONE, 2015).

T1 sequence (P08603 19-1231): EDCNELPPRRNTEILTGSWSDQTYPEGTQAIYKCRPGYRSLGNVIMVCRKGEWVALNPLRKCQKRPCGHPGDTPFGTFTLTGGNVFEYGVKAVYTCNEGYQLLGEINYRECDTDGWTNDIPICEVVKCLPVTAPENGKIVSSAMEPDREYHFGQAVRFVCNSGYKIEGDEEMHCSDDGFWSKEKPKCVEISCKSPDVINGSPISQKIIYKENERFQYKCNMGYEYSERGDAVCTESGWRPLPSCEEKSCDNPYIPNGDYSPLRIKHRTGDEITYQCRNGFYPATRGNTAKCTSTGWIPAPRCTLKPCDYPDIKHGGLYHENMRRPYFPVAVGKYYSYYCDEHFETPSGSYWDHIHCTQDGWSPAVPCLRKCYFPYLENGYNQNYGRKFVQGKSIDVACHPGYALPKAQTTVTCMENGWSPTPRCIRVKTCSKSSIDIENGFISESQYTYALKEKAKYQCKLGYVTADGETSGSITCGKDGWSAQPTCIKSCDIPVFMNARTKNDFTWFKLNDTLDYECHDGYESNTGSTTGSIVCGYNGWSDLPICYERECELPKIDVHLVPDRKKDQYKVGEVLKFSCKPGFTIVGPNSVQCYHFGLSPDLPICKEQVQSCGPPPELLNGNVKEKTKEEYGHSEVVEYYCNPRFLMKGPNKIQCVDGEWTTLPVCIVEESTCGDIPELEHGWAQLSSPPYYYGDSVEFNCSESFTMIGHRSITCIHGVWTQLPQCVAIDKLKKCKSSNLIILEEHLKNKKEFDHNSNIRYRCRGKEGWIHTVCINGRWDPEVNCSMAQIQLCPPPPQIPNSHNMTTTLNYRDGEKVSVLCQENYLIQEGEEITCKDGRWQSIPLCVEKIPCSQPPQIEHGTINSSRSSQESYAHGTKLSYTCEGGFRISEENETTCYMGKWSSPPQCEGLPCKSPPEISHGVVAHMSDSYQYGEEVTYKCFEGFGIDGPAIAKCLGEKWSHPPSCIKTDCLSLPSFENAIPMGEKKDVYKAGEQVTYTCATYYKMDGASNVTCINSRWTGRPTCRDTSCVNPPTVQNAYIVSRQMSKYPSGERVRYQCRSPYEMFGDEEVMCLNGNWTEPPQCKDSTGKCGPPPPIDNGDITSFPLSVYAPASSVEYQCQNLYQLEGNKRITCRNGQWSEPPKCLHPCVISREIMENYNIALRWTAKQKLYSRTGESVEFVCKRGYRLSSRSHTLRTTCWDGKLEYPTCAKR

B1: wild-type FHbp ID 1, soluble recombinant (natural protein)
chain: CSSGGGGVAADIGAGLADALTAPLDHKDKGLQSLTLDQSVRKNEKLKLAAQGAEKTYGNGDSLNTGKLKNDKVSRFDFIRQIEVDGQLITLESGEFQVYKQSHSALTAFQTEQIQDSEHSGKMVAKRQFRIGDIAGEHTSFDKLPEGGRATYRGTAFGSDDAGGKLTYTIDFAAKQGNGKIEHLKSPELNVDLAAADIKPDGKRHAVISGSVLYNQAEKGSYSLGIFGGKAQEVAGSAEVKTVNGIRHIGLAAKQ
notes: also called WT
B1: the Kd (in general, the constant that tells how readily two partners part at equilibrium) is 17 nM. That is a double-digit nanomolar value.
